According to the DeepSol protein solubility set:

Assay: soluble on expression in E. coli; label from the status in PepcDB or PDB records

Soluble on expression in E. coli, not soluble:
MGSDKIHHHHHHMSFGVNRDESSAFCQRAFEAENWRLAASAGLAPTLVAQSIDGRCYLSPLLEDGGWQQRYQEVPLSQITCDAAFFTSPGQTHAGSDREPDGLTHTTRLLLDLLLGLQALPVPANVKGFTTQWQDYETALDASQSHWARNPRWQEAYQALAAEFTEVEAAMARLDAMGLSCQYSHRDLTPHNLLCHQGKLFCIDFEYACASHPLWDLAAVLASHNLPGRERRDLMDAYLYAHPQLESSMSSRVVDAVALHWYFGAIWALLMAGQSGDDDYLCWFHRYLQLAKS
MEYLFLRRKKTSSTSVRQKTLLYRAAGREWTARFSSLSDVRPADSLIYKGILYQLEIRRAFLDSSLSLKKLSMMLETNQTYLSNAVNRYFGCHLKELLNRYRVEYAKELLRNGGCPLGEVPSRSGFGSKSPFYLAFVRQTGMTPKRYAARERNLVNLEIENEVLL
MAHIVIVGAGLGGLPTAYELRHILPKQHQVTVISETPYFTFIPSLPWVAMGLTSLESIQVSLQQRLKQKGINWILGRVDYLNPQNQKISLGEQSISYDYLIIATGAELALDAVAGLGPDGYTQSVCNPHHAIKAFQAWQNFLLAPGPLVVGALPKTSCLGPAYEFTLLADYVLRKQGLREQVSITFVTPEPYAGHLGIGGMANSAELVTKFMAERGVEVIENVAVTAIEANQIHLGNGRVLPFAYSMLLPPFRGPRFVRQVPGLSNQDGFIPVLPTYRHPEYASIYAVGVVVEIKPSEVTPLPLGVPKTGQMTEAMGMAVAHNIAIELGVFSAPPVTPTLDAICFADFGNSGILFLANPVLPDLATGKRRRAVALSGAWVTWAKAAFERYFLAKMRFGTAVPWFEKLALKLLGLSLVAPLAVKSSRNISQENYLEHHHHHH
MSLAVGKYTQLISDLLQSVSIVDALPRGAAQAGILCQDTKEVLESENTVLEIAIPRQDNLVIVGDIHGQFADMLSNVLSIQLNLNNTKATDGRGSPSTEIYKFLFLGDYVDRGPQSLEVITLLFALKVEYPEHIFLLRGNHEEAQTSRLYGFFQECKSKLEGTGDRGPASVDITSSTWLQYNTVFCWLPLAAVVACPSGMFFCTHGGLSPHTLSVPLLRSLRRNEYGMVDDFEDTFYTPTSRGGDDMLEGPGAKARLVIDGLLWSDPEDQVSGCQMNNRGCGFIFGPDVTRSFLDRNYSYGFPPSKRQLIGEMKPGMQFILRGHQCAREGYMWCHGGLVLTLFSAPNYCGMHGNKGAVALLRGQVQAGKDRVELEFNVYDTVVRGGSDNLVACLSPFAFAHYFSGDSEGHHHHHH
MGSDKIHHHHHHMAKKLFDYQLDETVDGYFLLKDSEVRIAKNGKKFLAINFQDTSGEISGKFWDASDTDVENFQAGRIVHLKGKRENYQGNPQIKIQQMRLTHSGEPQEVQQFVEHAPLKTDTMADEINQFVFEITEPNWNRIVRHMLTTFHDRFFSYPAAKKNHHAFAGGLAYHTLSILRLAKAVADQYPHVNRALLYAGAILHDMGKTIEMSGPVSTTYTLAGNLVGHIVLIDEQIVETCQQLKIDEQSESVLVLRHTILAHHGLLEYGSPVRPHIMEAEILHDLDELDASIQMMQTSLGHAEPGTYTERIFAMDGRNFYRPTGDQTKGELPDEQN
MGSDKIHHHHHHMILAAKNSVFVHIRRGDYVGIGCQLGIDYQKKALEYMAKRVPNMELFVFCEDLEFTQNLDLGYPFMDMTTRDKEEEAYWDMLLMQSCQHGIIANSTYSWWAAYLIENPEKIIIGPKHWLFGHENILCKEWVKIESHFEVKSQKYNA
MCLILFALDAHPRYRLVLAANRDEFYARPTAPAAFWDDAPQVLAGRDLTAGGTWCGVTRDGRIAAVTNYRDPGAHRVGARSRGELVAGFLGGDEAPSRWLEHLQRNGHDYNGFNLIFGDGNGLHYHSNRGAAASPLSPGIHGLSNHLLDTPWPKVARGRDALARLLATADEPAVDDLFAILANRTPAPDHLLPDTGVSLDWERLLSPLFITSPTYGTRSSTVILVDRSGQCTFVERSYNGAADHPRTVEYRFEVITLEHHHHHH
MFSQNPYESHVDVAVSAASANLRNMTNEQLISLLDDDALLESIIVNLPQVRSMPTDKESALAANKSLAEWNLAQKPRIDAAKTQTVDLYDQVKKLQGEVAVLKSQLDSVSSSKSLDTTSSLMQVAAQEADDDAEALFTQFENGEISVEIFLKQFKDKKTIAHLRKIKSDRLAALLREQTYSSYAQPTVPPPMPHAQPGYPTGNHMPGIGNIQFGSGYSGYPNISQPSAGRHPFF
MSYFKNAFNQKSLIDDSSVYLEPCSSSNFIELKRMHYNEENTKKTWDIIKSLDSVAVLLYEKESDCFVIVKQFRPAIYARRFHFKCDQDQTIDGYTYELCAGLVDKANKSLEEIACEEALEECGYQISPKNLETIGQFYSATGLSGSLQTLYYAEVHKNLKVSKGGGIDTERIEVLFLERSKALDFIMDFQYAKTTGLSLAILWHLKKFKNV
SLATRRPMSIAEPDTAVSTASFMTAWEFPQGDDSAETPTTPKALQFQEPEYIHIPWDHNTDIAPDLMDLCHVVDDRTKAGKRVLIHCQQGASRSASLIIAYGLFQRPELTVNDAYYAAQAKSQWISPNMKLMYSLQDFQKEVSTKRTAQPSNREG
MGSDKIHHHHHHMMYPMPSWVYDSVVYQIFPDRFFIGKGKTVEDKKDLYLKRGGVIEKWGVPPRKLPGAQHVKIFYGGDLWGIAEKVDYFEELGINVLYLTPIFLSDTNHKYDTIDYFRVDPQFGGKRAFLHLLRVLHERSMKLILDGVFNHVGSQHPWFKKAKKNDPEYVNRFFLYKDRHRSWFDVGSLPELNVEVEEVKEYILKVVEHYLKLGIDGWRLDCGHDLGPTVNLWINMKVKEFSAEKYLVSEIWTYPAGWDMVDGLMNYNFRNLVLSYVNGETDSIGFHLERAYRETKNIFGCWNMLDSHDTPRLATMVPDRDLRKLAVVLQFTYPGVPLVYYGTEIGLTGGEDPECRATMEWNREKWDVDLFEFYKKMIRLRRTDPGLRFGEFVLLNDSPLAFLRKAPHPLQNTIVVVNPGEEKVLVLSIPDGKIMNTTPLVDVFSGERFHVDGGVVKLPLLARSFRILKPEDLRVGKYRLYKRV
MGSDKIHHHHHHMDSRDMQAIGLCRFSYPAIGGFQVEHETIEERISYLYAEDRLEERFQLLETVALPCLREQTDQNFELIVVIGDTLPKRHGDRLHDLTSDMPQVRIVVEPPRPQRELMKELLNSARTDPSKPCLQFRYDDDDAVSVDFIERFRNALNDCRGLVTTNRTVAVDFNRGYVAELGADGIAATETVRTLYVASLGMYVKGGCRLTIMNFAHEKIGRFMPVISISDVPMWVRSHNGFNDSRQKKVKPVPVVPLTEDQKAEFAARFAIREDHVKRVFSGG

Soluble on expression in E. coli, soluble:
MSLSAPASEIAALILRGFDDYREQFREITDGARARFEQAQWQEAQRASAQRINLYEEKVAETVAGLRAGLADSELLDVERWPIIKSAYIAQIDLRLDDELAETWFNSIFCGLFSHDNISDGTMFVHTTRPSLRAHARAPYTRTYRPGGDLRQALEKIFDDYRFDVPYDDRERDLERIDALLHSNLPDWVCKDPDLAIELIGSVFYRNKGAYLVGRLFTPDEQWPLVFPLLHREDHGIQFDTVITDEAEVSIIFSFTRSYFMVDVPVPAELVAFLKRLLPGKHLAELYTSIGFYKQGKSEFYRALINHLATTDDRFVMAPGVRGMVMSVFTLPGFNTVFKIIKDRFNPSKSVDHATVIQKYQLVKNHDRVGRLADTQQFADFRFPVSKFEPECLAELLEVAPSTVVMEGDVVLIRHCWTERRMTPLNIYLENASEAQTREALNDYGLAIKQLAAANIFPGDMLLKNFGVTRHGRVVFYDYDEICYLTEVNFRYIPEPRFPEDEMSSEPWYSVGPNDVFPEEFPRFLFVDLNQRRLFAKLHGNLYDAKYWQGLQEQIREGKVIDVFPYRRQETPEQLLEGHHHHHH
SAFSGTWQVYAQENYEEFLRAISLPEEVIKLAKDVKPVTEIQQNGSDFTITSKTPGKTVTNSFTIGKEAEITTMDGKKLKCIVKLDGGKLVTRTDRFSHIQEIKAGEMVETLTVGGTTMIRKSKKILVP
MLTLNYYVEITATPQRVWRVLTDAELYKRWAQAFSPQSQFEGEWEEGSDITFFDPDMGGTRAVIDSVQPLHRLEFHHVAIFNPDNRQQLDADIAAKWIGSREIYQIDTEDERLLLNITIHTHSDFVSMFNNGWEKALPLIKSICEETDSQLEHHHHHH
VTGPTEESAVATVADWPEGLAAVLRGAADQARAAVVEFSGPEAVGDYLGVSYEDGNAATHRFIAHLPGYQGWQWAVVVASYSGADHATISEVVLVPGPTALLAPDWVPWEQRVRPGDLSPGDLLAPAKDDPRLVPGYTASGDAQVDETAAEIGLGRRWVMSAWGRAQSAQRWHDGDYGPGSAMARSTKRVCRDCGFFLPLAGSLGAMFGVCGNELSADGHVVDRQYGCGAHSDTTAPAGGSTPIYEPYDDGVLDIIEKPAES
MSLTVSARRADAQRNRELILDAAREQLREPGELKMNAVAKACGIGQGTLYRHFPTREDLLVEVYRHDVEELVAAASDMVSTRSPVEALAGWFERVAAYARVKNHVFAAVEAATWRDLAAHSLGPIGEAVELLLAAGRAEGSMRADVEARDVIVLIGWLSRLDDTELDERGPRLLSVLLDGLRTPQGEGHHHHHH
LKVLTNKASVMLFMKGNKQEAKCGFSKQILEILNSTGVEYETFDILEDEEVRQGLKTFSNWPTYPQLYVRGDLVGGLDIVKELKDNGELLPILKGE
HMPSVIVVGGQWGDEGKGSIVAYLSLHDEPEIIARGGVGTNAGHSVVINGKKYAVRQIPTGFMQTKARLLIGAGVLVDPEVFFHELEQLKDFNVKDRVGIDYRCAIIEEKHKQLDRTNGYLHGKIGTTGSGCGPANADRVMRKAKQAKDVKELEPYLTDVAQEINDALDEGSLVLVEGTQGFGLSLYYGTYPYVTSKDVTASSVAADVGIGPTRVDEVIVVFKSFPTRVGAGPFPTEMPMEEADRLGLVEYGTVTGRRRRVGWFDFEMARYSARINGATMLAVTMLDKYDKEAFGVTDYDKLPRKAKEFIEEIEERVGVPVGLIKTGPELEHIIDRRDTI
MIDPREPIVTPVPVEELRPTQITVGMREVALKRQMIREQDAKKKTGAFLGKHMVPVVLGPKNRNYVTDHHHLARALLEEGVKDVLVTVISDLSALDKDTFLFVLDNRGWMHPFDESGRRRDYSAIPKTIGELIDDPYRSMAGELRRMGGFAKDTTPFSEFIWADFLRRRIDRNAVAKNFDKAMKEALSLAKGKDADYLPGWCGPTSDAAALEHHHHHH
MSLTQTAFRSQLLTFNGDPAQSSQAAIYETDGLLIVDDGKVVAAGPYAQLAATLARDAIVHELRDKLIVPGFIDTHIHYPQTDMIASPAPGLLPWLDKYTFPTERQFGDPEHAREVADFFVDELLACGTTSALVYCTVHKQSADALFAASDARDLRMIAGKVLMDRNCPEFLRDTAQSGYDDSAELIDRWHGKGRQMYALTPRFAPTSTEAQLEACGELARRHPDVFVQSHVAENVDEVKWVGELFPGHRSYLDIYDRYGLLRPRAVYGHCIHLDDEDRRRMAETRTVVAHCPTSNFFLGSGLFDFDKAGEYDVPVTLATDVGGGTSFSMLQTMNEAHKVARLSGHHLTATRMFWLATAGAAQALDLADTVGTLAPRTEADFVVLDPQATPLLARRTKRADSLEELLFAFALLGDDRAVYRTYAAGQLVHERGAAPRPAAEGHHHHHH
